{"source": "paper PMC11806767", "about": "“The tryptophan-aspartate (WD) repeat domain of bovine Coronin-1A promotes mycobacterial survival by inhibiting calcium signaling-mediated phagosome-lysosome fusion” (Veterinary Research, 2025)", "proteins": {"B1": {"name": "bovine Coronin-1A (p3×Flag-bCoronin-1A) (natural protein)", "chain": "MSRQVVRSSKFRHVFGQPAKADQCYEDVRVSQNTWDSGFCAVNPKFVALICEASGGGAFLVLPLGKTGRVDKNVPMVCGHTAPVLDIAWCPHNDNVIASGSEDCSVMVWEIPDGGLTLPLREPVVTLEGHTKRVGIVAWHPTAQNVLLSAGCDNVILVWDVGTGVAVLTLGSDVHPDTIYSVDWSRDGALICTSCRDKRVRIIEPRKGTIVAEKDRPHEGTRPVRAVFVSDGKILTTGFSRMSERQVALWDTKHLEEPLSLQELDTSSGVLLPFFDPDTNIVYLCGKGDSSIRYFEITSEAPFLHYLSMFSSKESQRGMGYMPKRGLEVNKCEIARFYKLHERKCEPIAMTVPRKSDLFQEDLYPPTAGPDAALTAEEWLGGRDAGPLLISLKDGYVPPKSRELRVNRGLDTGRKRTTPEASGAPSSDAISRLEEEMRKLQATVQELQKRLDRLEETVQAK"}}, "molecular_target": "the molecule itself", "test": "native gel or EMSA", "data": [{"protein": "B1", "values": [{"measurement": "stoichiometry N", "result": 3}]}]}
